Data reported in patent US20190085054A1.

Tests used:
Test in all cases: cell-based or functional assay
[1] = molecular target: catalytic domain of human MMP9 (human) (UniProt P14780)
[2] = molecular target: human MMP2 (pro-MMP2 activated with APMA) (human) (UniProt P08253)
[3] = molecular target: active MMP13 (UniProt P45452)

catalytic domain of human MMP9 (human), sequence (P14780 107-444 limits assumed): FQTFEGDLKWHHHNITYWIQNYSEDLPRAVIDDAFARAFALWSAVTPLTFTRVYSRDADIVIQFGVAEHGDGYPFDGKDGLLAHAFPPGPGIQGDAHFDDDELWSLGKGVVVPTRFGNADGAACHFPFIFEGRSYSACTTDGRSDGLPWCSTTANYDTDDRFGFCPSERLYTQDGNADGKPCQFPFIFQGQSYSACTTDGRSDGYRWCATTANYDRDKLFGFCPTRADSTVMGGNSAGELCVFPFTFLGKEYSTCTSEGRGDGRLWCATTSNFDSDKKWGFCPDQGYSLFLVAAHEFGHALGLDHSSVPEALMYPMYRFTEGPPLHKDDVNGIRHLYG
human MMP2 (pro-MMP2 activated with APMA) (human), sequence (P08253 30-660): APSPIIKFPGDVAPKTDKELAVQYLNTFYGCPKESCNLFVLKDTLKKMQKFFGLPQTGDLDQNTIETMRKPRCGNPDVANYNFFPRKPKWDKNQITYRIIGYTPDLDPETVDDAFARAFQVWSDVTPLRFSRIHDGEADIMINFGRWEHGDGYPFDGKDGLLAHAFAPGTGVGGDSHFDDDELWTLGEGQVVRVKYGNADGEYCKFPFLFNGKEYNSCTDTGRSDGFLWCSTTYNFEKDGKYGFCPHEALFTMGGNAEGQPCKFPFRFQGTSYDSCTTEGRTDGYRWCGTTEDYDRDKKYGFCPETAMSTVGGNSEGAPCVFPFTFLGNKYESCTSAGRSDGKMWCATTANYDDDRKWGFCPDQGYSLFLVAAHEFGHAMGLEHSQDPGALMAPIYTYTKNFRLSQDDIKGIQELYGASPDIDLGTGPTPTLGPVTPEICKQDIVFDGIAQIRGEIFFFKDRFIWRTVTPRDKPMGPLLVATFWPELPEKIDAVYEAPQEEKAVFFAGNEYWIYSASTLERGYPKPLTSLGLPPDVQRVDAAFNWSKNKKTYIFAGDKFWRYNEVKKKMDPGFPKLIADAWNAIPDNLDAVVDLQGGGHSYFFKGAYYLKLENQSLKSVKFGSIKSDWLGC

MMP9 IC50 [1] [nM]	MMP2 IC50 [2] [nM]	MMP13 IC50 [3] [nM]	Substance
4	0.3		TIMP-3 mutein K45S, F57N
2.3	1	3.1	TIMP-3 mutein P56N, G58T
4.6	0.5	0.5	TIMP-3 mutein F57N
0.5	0.8	2.2	TIMP-3 mutein T63N, K65T
